# From the supplement of paper PMC9732359
# ± gives the uncertainty stated by the source.
# Assay: protein stability index of a GFP-peptide fusion (yeast GPS) (PSI 1-4); higher = more stable; sorted into four equal gates, so the index is relative within each strain
# Conditions: pdr5∆
# Outline: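 Each library plasmid carries Cherry plus GFP with a tiled 17-residue yeast protein peptide fused downstream, and the pooled library was carried in yeast. Mid-log cultures in leucine-free medium were sorted into four equal gates by GFP/Cherry ratio. Reads from Illumina sequencing of PCR-amplified plasmids from each gate were assigned to strains by barcodes. Per peptide, the protein stability index was computed as the summed products of gate read frequency and gate number.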
row,Sequence,protein stability index
1,DPQDVFNYNIFMHDPSV [SIR2],2.02 ± 0.074

# Same assay, conditions: san1∆
row,Sequence,protein stability index
1,CERRSTLKLQDTRITPS [PRE6],3.09 ± 0.099
2,CFICLLHLANEHGLQIT [BRN1],2.61 ± 0.17
3,CHLYSQRMHAIHEIDER [NNF1],1.8 ± 0.1
4,CIECQPKAMTDTDNECV [HRT1],2.94 ± 0.11
5,CINKWIKTRDACPLDNQ [HRT1],2.72 ± 0.078
6,CLDRCKEQYNRYRDLMI [MTR3],2.69 ± 0.054
7,CNNINKGLKENDVAVEK [BRR2],3.25 ± 0.09
8,CQLQNSDNSEEEEVDID [RRP43],3.02 ± 0.08
9,CRELHNKHLTTLVEIFL [SSN3],1.82 ± 0.065
10,CRLFFTELASKDNAIYN [YCS4],1.1 ± 0.16
11,CYEKVLESINEGNQIIV [BRR2],2.05 ± 0.093
12,DAAAEKRNGDEVYTLVD [ARP7],3.42 ± 0.046
13,DAFNMLSLTTVPCDRIE [SNF6],2.43 ± 0.091
14,DAFRVHICGICGLMTVI [RPB2],1.34 ± 0.16
15,DAGKLVYVTGGRNLGRI [RPS4A],3.08 ± 0.17
16,DAIWSLVFQLAKNFSAQ [SRB8],2.4 ± 0.054
17,DANPSSQIIARNEEILR [SMC2],3.21 ± 0.076
18,DDALHAKKLPNGNWEVG [DIS3],2.94 ± 0.057
19,DDDDEDDDEIVMPVPNV [SKP1],3.08 ± 0.11
20,DDDEVDYSEIQRSRRKF [DSN1],3.04 ± 0.2
21,DDEDDEHNPTIVGGLYY [AAR2],3.17 ± 0.064
22,DDEDEDDSDNVMSSDDE [PRE10],3.44 ± 0.15
23,DDENNPSHYPHPYEYEI [RRP6],2.74 ± 0.054
24,DDFFKELAKEAKKSTTI [ESC2],2.97 ± 0.094
25,DDGDDEDLLECLDRCKE [MTR3],2.87 ± 0.085
26,DDLEKTLDKKDSIPLRI [RPN9],2.94 ± 0.11

row,Sequence,protein stability index
1,DDMVEYEDGTPATTSQM [CYT1],3.02 ± 0.19
2,DDNETENPNFWRQFGNR [GRR1],3.31 ± 0.06
3,DDTKNQDSMSKGTGEES [YGR119C/NUP57],3.21 ± 0.082
4,DDVKNILNAKYTKETYQ [RPN6],3.08 ± 0.052
5,DEAKDFIVSGTASDQLF [PUP3],2.57 ± 0.096
6,DEDDDQPMISPDNSIFG [SWI3],3.2 ± 0.086
7,DEDEDEDEDDDDDDDED [QCR6],2.05 ± 0.047
8,DEEMAVLTRMDEDRSKK [SNF2],2.42 ± 0.092
9,DEKKDSDSSKPAFSFGT [YJL041W/NSP1],3.07 ± 0.067
10,DELDAIGTKRFDSEKSG [RPT5],2.25 ± 0.086
11,DELVKLLLDNGFNMKKI [SRP68],2.98 ± 0.24
12,DEMYELTDPMTVMFFYH [DIB1],2.83 ± 0.14
13,DENKAGATSKPAFSFGA [YJL041W/NSP1],3.33 ± 0.048
14,DEVGRRSMLTVVRNMLA [YCG1],3.01 ± 0.13
15,DFDESLKYLDDLKAQFQ [RPN9],3.12 ± 0.098
16,DFIGHNSNINTLTASPD [ASC1],2.87 ± 0.068
17,DFLGVASTGSGKTLAFV [PRP28],2.92 ± 0.22
18,DFPHLTPKLQTQLSYLI [YCS4],2.79 ± 0.044
19,DFQIDGNIFELLSDTFE [RRI2],2.95 ± 0.11
20,DFRTRYIDIRTNNVLRK [MTW1],2.43 ± 0.27
21,DFTLIPRMASVFENYVK [CDC53],2.71 ± 0.061
22,DGHLRAPLKHGVGILYK [BRR2],1.58 ± 0.2
23,DGYQLFHAEPSGTFYRY [PUP2],2.64 ± 0.062
24,DHKYVCTFSMEPYHFIS [SRB8],1.83 ± 0.059
25,DHQHILRKLKKMNNKPE [RPC53],1.78 ± 0.1
26,DIDVTIVSKEYEKNFEA [ESC2],3.24 ± 0.088

row,Sequence,protein stability index
1,DIEVPDVNALKFNNTQR [SNF12],2.98 ± 0.047
2,DIFAVNLEESSKLDIYT [RET1],2.72 ± 0.087
3,DIIQGNPLMYSGGNNTA [PCI8],3.32 ± 0.047
4,DIKDFADKVYTKENLEV [QCR2],2.69 ± 0.12
5,DIPGVRFKVVKVSGVSL [RPS23A],1.25 ± 0.29
6,DIVSIDIEEPQLDLLDD [MTW1],3.25 ± 0.05
7,DIWRVAGKFELLDRILP [SNF2],2.02 ± 0.14
8,DIYMHDVNSASKSESDS [RRP4],3.15 ± 0.098
9,DKARRLGYKAKQGFVIY [RPL15A],2.91 ± 0.14
10,DKETQLKKRAVSGVELR [POP7],2.36 ± 0.18
11,DKILQLNDRFQTLSSHL [PGD1],2.55 ± 0.051
12,DKKLLRRLLNLYNDNNK [SWI1],2.57 ± 0.085
13,DKKQQTIDEQSQISPEK [RPN1],3.4 ± 0.063
14,DKKYKGLTTVWLLSALG [REC8],2.04 ± 0.084
15,DKLEKVTHDCYRVTLES [RPC34],3.25 ± 0.075
16,DKLINDVTAIQTWSYLS [ECM29],1.74 ± 0.087
17,DKLLDFIRYDVKTPKKT [CSN12],2.2 ± 0.052
18,DKQGWTPLFHALAEGHG [NAS6],2.99 ± 0.13
19,DKSTKTAEAPTLSFNFS [YOR098C/NUP1],3.24 ± 0.051
20,DKTAVKLDTEVKNTNAN [SWP82],2.88 ± 0.099
21,DLAMANSLRRVMIAEIP [RPB3],1.09 ± 0.18
22,DLCSLKPYVDRFAFSVI [DIS3],1.93 ± 0.065
23,DLEHKEDCVEEFFHLQH [QCR6],2.69 ± 0.14
24,DLENKFNRLKKQAHEKL [YIL149C/MLP2],2.3 ± 0.17
25,DLETSLSQSSSYLETLT [MED2],2.7 ± 0.077
26,DLFGDSNKSNSTNESNK [SSN2],3.07 ± 0.064

row,Sequence,protein stability index
1,DLFSNNNYNSRIQLMND [MED1],2.93 ± 0.11
2,DLIKFSAETLSELIRTT [FAS1],2.1 ± 0.081
3,DLKSLNVRDDMKPSDNI [SSN2],2.62 ± 0.16
4,DLLDMIQFGAKNMFEKK [ISW2],3 ± 0.16
5,DLLILTRSIKEKWLLNQ [SRB6],1.32 ± 0.2
6,DLLNAASIESADILCPL [IRR1],2.92 ± 0.12
7,DLQLLYVESDEDDTQIV [IRR1],3.07 ± 0.084
8,DLRIRIKLDIVVGQNQL [SNF5],1.67 ± 0.1
9,DLSLLGYCDDIAAMVAQ [SIR2],2.82 ± 0.052
10,DLYEQIGIDPPRGVLLY [RPT3],2.8 ± 0.055
11,DMDGVDFNQAFEGTDDN [BRN1],3.35 ± 0.094
12,DNDFIINDFKKIGRENE [POP5],3.3 ± 0.057
13,DNDRFNVVGKLISIISS [YML103C/NUP188],1.21 ± 0.081
14,DNEEWMNDVINTEEVNR [LIN1],3.23 ± 0.044
15,DNIDYAPMRLATAALEI [YJL039C/NUP192],2.29 ± 0.077
16,DNKDKEGNAGGDQKTSE [YOR098C/NUP1],3.19 ± 0.17
17,DNNSKAEASFTFGTKHA [YLR335W/NUP2],2.93 ± 0.049
18,DNNSSLNVSNTKENGDF [PRP8],2.9 ± 0.058
19,DNSNVMTVKLESITYQK [RGR1],3.1 ± 0.12
20,DPFFAQSEDLSHAVEFF [YML103C/NUP188],3.31 ± 0.045
21,DPNEVEIKKLLATNSLV [DIS3],2.35 ± 0.057
22,DPNEVKYLYLRAVGGEV [RPL12A],1.98 ± 0.18
23,DPNLELDQVGVPKSIAK [RPO21],2.44 ± 0.25
24,DPNLSFESSSSLPFLLR [SSN2],2.94 ± 0.1
25,DPQDVFNYNIFMHDPSV [SIR2],1.35 ± 0.12
